Data set [1] in a line: Analysis of protein activity of the recombinant proteins with UDP-glycosides. In kind it is biochemical. The protocol:
The protein activity was assayed in 100 μl of reaction mixture having the following composition: 50 mM Tris-HCl (pH 7.5), 10 mM MgCl2, 0.2% ascorbic acid, 1 μM tetrahydrobiopterin, 500 μM UDP-glycoside (one of UDP-glucose, UDP-galactose, UDP-xylose, UDP-glucuronic acid, UDP-galacturonic acid, UDP-N-acetylglucosamine, and UDP-N-acetylgalactosamine) and an appropriate amount of the purified recombinant protein. The reaction was performed at 37 for 10-60 minutes depending on an amount of protein. 30 μl of acidic iodine solution (2%/1% KI/I2 in 1 M HCl) was added to the reaction mixture and allowed in darkness for 1 hour for oxidation thereof. The mixture was centrifuged to recover the supernatant, which was then mixed with 10 μl of 5% ascorbic acid. 30 μl of 1N NaOH was added to the resulting mixture for neutralization and then HPLC analysis was carried out.
HPLC system consisted of Gilson 321 pump, Gilson 234 autoinjector, a fluorescence detector (Schimadzu RF-10AXL), and a system software (Gilson Unipoint version 5.11). Chromatography was performed on a guard column (10 μm, 4.3 mm×1 cm) and an Inertsil ODS-3 (5 μm, 150×2.3 mm, GL Science, Japan) equilibrated with 10 mM potassium phosphate buffer (pH 6.0) at room temperature. Pteridines were eluted isocratically at a flow rate of 1.2 ml/min and monitored at 350/450 nm (excitation/emission). Pteridine peaks were identified and quantified by using authentic pteridines, which were purchased from Dr. B. Schirck's Lab (Jona, Switzerland). Biopterin-glucoside was isolated from Synechococcus sp. PCC 7942 (Y. K. Choi, Y. K. Hwang, Y. H. Kang, Y. S. Park, Chemical structure of 1-O-(L-erythro-biopterin-2′-yl)-alpha-glucose isolated from a cyanobacterium Synechococcus sp. PCC 7942, Pteridines, 12 (2001) 121-125).

A short description of data set [2]: Characterization of enzyme activity by amount of protein, compared with BGluT. The class given is biochemical. The settings on record: production of tetrahydrobiopterin-glycoside by amount of protein (0.05-1.0 μg), FIG. 11. The protocol:
The enzymatic activities for the isolated proteins were compared with that of BGluT. First, production profiles of tetrahydrobiopterin(BH4)-glucoside produced according to amounts of the proteins was compared with that of BGluT. The enzyme activities were represented as a percentage to all converted amounts. The reaction condition was as follows. That is, reactions were performed in a final volume of 100 μl, which consisted of 50 mM Tris-HCl (pH 7.5), 10 mM MgCl2, 0.05% ascorbic acid, 1 μM tetrahydrobiopterin, 500 μM UDP-glucose or UDP-xylose, and a protein (0.05-1.0 μg). The reaction mixture was incubated at 37 for 20 minutes. 30 μl of acidic iodine solution (2%/1% KI/I2 in 1 M HCl) was added thereto in darkness for 1 hour at room temperature, so as to oxidize the reaction mixture. After centrifugation, the resulting supernatant was mixed with 10 μl of 5% ascorbic acid and neutralized with 30 μl of 1N NaOH for injection to HPLC.

Data set [3] is described as follows: Pteridine glycosyltransferase activity with human urine. As to conditions: 1 μg protein, 10 μl human urine in 100 μl, FIG. 12. The class given is biochemical. The protocol:
Also, 1 μg of each protein was added to 100 μl of reaction solution containing 10 μl of human urine instead of tetrahydrobiopterin. The reaction mixture was incubated at for 20 minutes. For CY-49, 500 μM UDP-xylose was added as a substrate; and for other enzymes, UDP-glucose was added. Other reaction conditions were the same as in the above.

A short description of data set [4]: BGluT-catalysed glucosylation of tetrahydrobiopterin (establishing reaction conditions). In kind it is biochemical. The protocol:
Unless otherwise specified, the following standard reaction conditions were used for the determination of tetrahydrobiopterin and its oxidized forms. Reactions were carried out in a final volume of 100 μl, which consisted of 50 mM Tris-HCl (pH 7.5), 10 mM MgCl2, 0.05% ascorbic acid, 500 μM UDP-glucose, 1 μg of BGluT, and an aliquot of pteridines or tissue extracts. The reaction mixture was incubated for 20 minutes at 37° C. and then mixed with 30 μl of acidic iodine solution (2% KIM % I2 in 1 N HCl). After 1 hour in the dark at room temperature, the oxidized mixture was centrifuged. […]
The HPLC system consisted of Gilson 321 pump, Gilson 234 autoinjector, a fluorescence detector (Schimadzu RF-10AXL), and a system software (Gilson Unipoint version 5.11). […] Pteridines were eluted isocratically at a flow rate of 1.2 ml/min and monitored at 350/450 nm (excitation/emission). Pteridine peaks were identified and quantified using authentic pteridines, which were purchased from Dr. B. Schirck's Lab (Jona, Switzerland). […]
The results of FIG. 1 illustrate that a selective and quantitative analysis of tetrahydrobiopterin is possible using BGluT. In order to validate the possibility quantitatively, various studies were carried out to establish a standard reaction condition suitable for analysis of biological samples. […]

Data set [5] can be described thus: Storage stability of purified recombinant BGluT. The class given is physicochemical. The settings on record: in 20 mM Tris-HCl (pH 7.5), 30% (v/v) glycerol, aliquots at −70° C. The source says:
According to the present inventor's article (Y. K. Choi, Y. K. Hwang, Y. S. Park, Molecular cloning and disruption of a novel gene encoding UDP-glucose:tetrahydrobiopterin alpha-glucosyltransferase gene in Synechococcus sp. PCC 7942. FEBS Lett. 502 (2001) 73-78), the BGluT gene cloned in pET-28a was overexpressed in Escherichia coli strain BL21(DE3). The recombinant BGluT was homogeneously purified with Ni-NTA column (Qiagen). Briefly, the transformed E. coli was induced to overexpress the protein with 0.3 mM isopropyl thiogalactoside (IPTG). After being incubated at 37° C. for 3 hours, the harvested cells were washed with lysis buffer (50 mM sodium phosphate (pH 8.0), 300 mM NaCl, 10 mM imidazole), resuspended in the same buffer, and disrupted by sonication. The crude extract obtained after centrifugation was applied to a column of Ni-NTA gel (Qiagen) and purified according to the product manual. The recombinant BGluT protein was eluted with 250 mM imidazole in the lysis buffer. The purified protein was dialyzed against 20 mM Tris-HCl (pH 7.5), mixed with glycerol to a concentration of 30% (v/v), and stored in aliquots at −70° C. until use. The protein was stable up to 4 months. Protein concentration was determined using Bradford reagent.

The values that follow come from patent US8658382B2, “Proteins with pteridine glycosyltransferase activity and analysis method using the same” (Inje University Industry-Academic Cooperation Foundation, priority 2008, dated 2014).

B1: CY-49: recombinant pteridine glycosyltransferase from Spirulina maxima CY-49, amino acid SEQ ID NO 3, transfers xylose (protein)
chain: MPQKSWKLLFISTPVGPLGSGLGGGVELTLLNMAKALHSRGHDITVVAPSGSVLESLSVIEISGKLQPIAQNQDRDSLITIPENSVLGNMWEYGRQVQTNYHAIVNFAFDWLPFYLTPFFPTPIAHWVSMGSLISALDQIVVEVMKQFPGTVGFYSHTQAATFGSDLGYACLGSGLEMDRYQFCDQPHQQLAWMGRISPEKGLEDAIAAADKTGIPLAIFGKIQDEQYWQNILNTYPNAPLNYRGFLNTDELQQGLRECRGLLMTHRWVEAFGNVAIEALACGVPVISYRRGGPAEIVRDGETGWLVEPDSVTGLVDAIAKLEQIDRRQCRALAEKEYSLVALGDRLETWLSDVIALKN
modifications: Spirulina maxima CY-49
For the molecule B1, the Substrate for glucosylation entry in data set [1] was “Xylose”. The “pteridine glycosyltransferase activity (sugar bound to tetrahydrobiopterin)” value in data set [1] (1 μM tetrahydrobiopterin, 500 μM UDP-glycoside, HPLC, FIG. 10) is recorded as “an activity for binding xylose to tetrahydrobiopterin”. In addition, the “activity compared with BGluT” value in data set [2] is recorded as “higher activities than BGluT”. Besides, the “HPLC chromatogram of the reaction mixture with human urine” value in data set [3] is on record as “showed the peak of biopterin-xylose, instead of biopterin-glucose”.

B2: BGluT: recombinant protein from a Synechococcus gene with pteridine glucosyltransferase activity (UDP-glucose:tetrahydrobiopterin glucosyltransferase) (protein)
chain: MTAHRFLFVSTPVGPLGSGRGGGVELTLPNLAKALTQRGHQVSVLAPAGSVLPDLPLETVPGTWQSTAQSHGRATPAEIPAESVLARLWDRAHQQQADFDLILNFAYDWLPLYLTPFFKTPVAHLISMGSLSEVMDQAIATSLDRYPGSIAVHSLAQAATFPFGDRCLCIGNALDLAAYGFNPEPEPVLGWVGRIAPEKGLEDAIQAAQQAGLPLRVWGALTEPDYWQRLQQQFGDRAVSYQGFVSTDELQRGLGRCQGLLMTPKWVEAFGNVAIEALACGLPVIAYARGGPLEIIEQGKSGWLVEPDQQAALVNAIGQLSSLDRAYCRAQAEARFSLAAMGQRLEAWLLPLLSRARGF
modifications: Synechococcus PCC7942
On to B2, for which the “amount of BGluT above which the product is not increased any more” value in data set [4] (100 μl reaction mixture, 1 μM tetrahydrobiopterin, 10 minutes, FIG. 2) is reported as “more than 1 μg”. Besides, the “conversion of tetrahydrobiopterin to its glucosylated product” value in data set [4] (even in the presence of dihydrobiopterin, FIG. 1) is listed as “specifically convert only all of tetrahydrobiopterin to its glucosylated product”. For the same molecule, the “time the protein was stable” value in data set [5] is listed as “up to 4 months”.
